We go through 6 molecules from paper PMC10397247.

One test concerns the target T1, APC8910-AA.
T1 chain: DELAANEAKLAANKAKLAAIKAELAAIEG
Briefly: two-hybrid library CCmax.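 Further: natural log of median RNA to DNA barcode read ratio; higher means stronger binding.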 As to conditions: mean of both orientations.

Another test has as its target T2, APC2237-AA.
T2 chain: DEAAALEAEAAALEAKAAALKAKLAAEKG
Briefly: two-hybrid library CCmax.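 Further: natural log of median RNA to DNA barcode read ratio; higher means stronger binding.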 The note with it: mean of both orientations.

The target of another test is T3, APC4011-AA.
T3 chain: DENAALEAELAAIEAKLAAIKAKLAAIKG
As to the kind of experiment: two-hybrid library CCmax.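 Further: natural log of median RNA to DNA barcode read ratio; higher means stronger binding.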 As to conditions: mean of both orientations.

The target of a further test is T4, APC2405-AA.
T4 chain: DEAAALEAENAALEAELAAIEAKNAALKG
Briefly: two-hybrid library CCmax.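 Further: natural log of median RNA to DNA barcode read ratio; higher means stronger binding.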 The note with it: mean of both orientations.

The target in the next test is T5, APC5383-AA.
T5 chain: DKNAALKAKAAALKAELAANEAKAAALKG
Briefly: two-hybrid library CCmax. The note with it: mean of both orientations.

In the next test the target is T6, APC1015-AA.
T6 chain: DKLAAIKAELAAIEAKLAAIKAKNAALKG
Briefly: two-hybrid library CCmax.

A further test concerns the target T7, APC232-AA.
T7 chain: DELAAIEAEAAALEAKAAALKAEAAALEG
Briefly: two-hybrid library CCmax. The note with it: mean of both orientations.

In another test the target is T8, APC4436-AA.
T8 chain: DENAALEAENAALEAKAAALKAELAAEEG
As to the kind of experiment: two-hybrid library CCmax. The note with it: mean of both orientations.

The target in another test is T9, APC1434-AA.
T9 chain: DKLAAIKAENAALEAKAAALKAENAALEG
As to the kind of experiment: two-hybrid library CCmax. The note with it: mean of both orientations.

In another test the target is T10, APC3645-AA.
T10 chain: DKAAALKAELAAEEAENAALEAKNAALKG
Briefly: two-hybrid library CCmax. The note with it: mean of both orientations.

In another test the target is T11, APC9319-AA.
T11 chain: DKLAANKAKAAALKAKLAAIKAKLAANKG
Briefly: two-hybrid library CCmax. The note with it: mean of both orientations.

In the next test the target is T12, APC7099-AA.
T12 chain: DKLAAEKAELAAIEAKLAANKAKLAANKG
Briefly: two-hybrid library CCmax. As to conditions: mean of both orientations.

For a further test, the target named is T13, APC6108-AA.
T13 chain: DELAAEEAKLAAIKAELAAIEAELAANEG
Briefly: two-hybrid library CCmax. As to conditions: mean of both orientations.

The next test deals with T14, APC9096-AA.
T14 chain: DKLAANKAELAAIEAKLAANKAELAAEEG
Briefly: two-hybrid library CCmax. As to conditions: mean of both orientations.

The next test addresses T15, APC4264-AA.
T15 chain: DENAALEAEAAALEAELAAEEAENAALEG
As to the kind of experiment: two-hybrid library CCmax.

The next test concerns the target T16, APC8191-AA.
T16 chain: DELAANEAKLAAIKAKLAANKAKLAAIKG
As to the kind of experiment: two-hybrid library CCmax. The note with it: mean of both orientations.

In the next test the target is T17, 4H376-AA.
T17 chain: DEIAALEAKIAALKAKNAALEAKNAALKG
As to the kind of experiment: two-hybrid library CCmax. The note with it: mean of both orientations.

In a further test the target is T18, 4H688-AA.
T18 chain: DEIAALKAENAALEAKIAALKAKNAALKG
As to the kind of experiment: two-hybrid library CCmax.

For the next test, the target named is T19, 4H_BCR.
T19 chain: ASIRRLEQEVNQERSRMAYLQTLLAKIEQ
Briefly: two-hybrid library CCmax. As to conditions: mean of both orientations.

A further test has as its target T20, 4H3493-AA.
T20 chain: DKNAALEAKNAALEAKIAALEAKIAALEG
As to the kind of experiment: two-hybrid library CCmax. As to conditions: mean of both orientations.

In another test the target is 4H_GCN4. As to the kind of experiment: two-hybrid library CCmax. The note with it: mean of both orientations.
The target of another test is T21, 4H3438-AA.
T21 chain: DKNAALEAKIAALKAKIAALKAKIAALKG
As to the kind of experiment: two-hybrid library CCmax. The note with it: mean of both orientations.

The target of the next test is T22, 4H56-AA.
T22 chain: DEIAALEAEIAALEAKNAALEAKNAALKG
Briefly: two-hybrid library CCmax. The note with it: mean of both orientations.

The next test concerns the target T23, 4H3073-AA.
T23 chain: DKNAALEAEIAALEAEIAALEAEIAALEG
Briefly: two-hybrid library CCmax. As to conditions: mean of both orientations.

For another test, the target named is T24, 4H347-AA.
T24 chain: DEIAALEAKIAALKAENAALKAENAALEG
As to the kind of experiment: two-hybrid library CCmax. The note with it: mean of both orientations.

The next test has as its target GCN2_T. As to the kind of experiment: two-hybrid library CCmax.
Another test addresses T25, 4H406-AA.
T25 chain: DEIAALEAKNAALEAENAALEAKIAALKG
Briefly: two-hybrid library CCmax. As to conditions: mean of both orientations.

For another test, the target named is T26, 4H3001-AA.
T26 chain: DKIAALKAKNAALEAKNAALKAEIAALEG
Briefly: two-hybrid library CCmax.

Another test addresses T27, 4H452-AA.
T27 chain: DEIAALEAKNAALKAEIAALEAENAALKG
Briefly: two-hybrid library CCmax. The note with it: mean of both orientations.

The target of another test is T28, 4H_APH.
T28 chain: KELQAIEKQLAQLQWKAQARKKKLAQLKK
Briefly: two-hybrid library CCmax.

For a further test, the target named is T29, 4H3015-AA.
T29 chain: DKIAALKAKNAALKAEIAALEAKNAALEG
As to the kind of experiment: two-hybrid library CCmax. The note with it: mean of both orientations.

In a further test the target is T30, 4H3340-AA.
T30 chain: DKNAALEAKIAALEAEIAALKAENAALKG
As to the kind of experiment: two-hybrid library CCmax.

Another test addresses T31, 4H3381-AA.
T31 chain: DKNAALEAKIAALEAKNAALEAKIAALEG
As to the kind of experiment: two-hybrid library CCmax. As to conditions: mean of both orientations.

A further test deals with T32, 4H963-AA.
T32 chain: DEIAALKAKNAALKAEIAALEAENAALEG
Briefly: two-hybrid library CCmax. As to conditions: mean of both orientations.

A further test addresses T33, P9A-bH.
T33 chain: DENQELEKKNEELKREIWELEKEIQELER
As to the kind of experiment: two-hybrid library CCNG1.

The next test has as its target T34, P8A-bH.
T34 chain: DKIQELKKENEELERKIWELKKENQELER
Briefly: two-hybrid library CCNG1.

For another test, the target named is T35, P8A-bA.
T35 chain: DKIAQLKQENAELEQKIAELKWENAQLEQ
Briefly: two-hybrid library CCNG1.

The next test has as its target T36, P9A-bA.
T36 chain: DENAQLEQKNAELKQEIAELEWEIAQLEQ
Briefly: two-hybrid library CCNG1.

Read-outs that look alike come from different tables or passages of the source.

Sequence of 4H_GCN4 (chain, as listed by the source): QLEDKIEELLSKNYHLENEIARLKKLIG

DEIAALKAKIAALEAKIAALEAKNAALEG [4H807-AA]: the interaction score with APC8910-AA is -1.59; with APC2237-AA, -1.21; in the test with APC4011-AA it was 1.45; in the test with APC2405-AA, -1.49; in the test with APC5383-AA, -1.89; with APC1015-AA (mean of both orientations), -0.714. Further, the interaction score with APC232-AA is -1.73; in the test with APC4436-AA, -1.65; with APC1434-AA it was -1.82; with APC3645-AA, -1.3; in the test with APC9319-AA it was -1.71; with APC7099-AA, -1.32. Also, the interaction score is -1.43 in the test with APC6108-AA, -1.75 with APC9096-AA, -1.72 with APC4264-AA and -2.1 with APC8191-AA.

In the case of DKIAALKAKNAALEAKNAALKAEIAALEG [4H3001-AA], the interaction score was -1.69 with 4H376-AA; -1.46 with 4H688-AA (mean of both orientations); -2.15 in the test with 4H_BCR; -1.38 with 4H3493-AA; -2.43 in the test with 4H_GCN4; -1.83 in the test with 4H3438-AA. Besides, the interaction score with 4H56-AA was -1.87; in the test with 4H3073-AA, -0.938; in the test with 4H347-AA it was -2.08; in the test with GCN2_T it was -1.9; in the test with 4H406-AA it was 2.27; with 4H3001-AA, -1.82. Besides, the interaction score with 4H452-AA is -1.76; in the test with 4H_APH it was -2; with 4H3015-AA it was -1.86; in the test with 4H3340-AA (mean of both orientations), -1.44; in the test with 4H3381-AA it was -1.43; in the test with 4H963-AA, -1.94.

In the case of DKIQELKKENEELERKIWELKKENQELER [P8A-bH], the figures for the interaction score in the test with P9A-bH and with P8A-bH were -0.34 and 0.54, respectively.

Take DKIAQLKQENAELEQKIAELKWENAQLEQ [P8A-bA]: the interaction score was -0.497 with P8A-bA and -0.256 with P9A-bA.

For the molecule DKLAAIKAELAAIEAKLAAIKAKNAALKG [APC1015-AA], the interaction score in the test with APC8910-AA was -1.34; in the test with APC2237-AA, -0.0287; with APC4011-AA it was 1.66; with APC2405-AA, -1.26; with APC5383-AA, -1.69; with APC1015-AA, -0.544. For the same molecule, the interaction score is 0.0398 with APC232-AA; -1.14 in the test with APC4436-AA; -1.58 with APC1434-AA; -1.79 in the test with APC3645-AA; -1.82 with APC9319-AA; -2.02 in the test with APC7099-AA. In addition, the interaction score in the test with APC6108-AA is 0.792; with APC9096-AA, -1.67; with APC4264-AA (mean of both orientations), -1.82; in the test with APC8191-AA, -1.8.

Take DKNAALEAKIAALEAEIAALKAENAALKG [4H3340-AA]: the interaction score was -1.48 with 4H376-AA; -1.69 in the test with 4H688-AA; -1.48 in the test with 4H3493-AA; -0.858 with 4H347-AA; -1.43 in the test with 4H406-AA; 1.7 in the test with 4H3340-AA. The interaction score in the test with 4H3381-AA is -1.57; with 4H963-AA it was -2.28.
